Test results published in patent US20230039401A1, “COMPOSITIONS AND METHODS FOR TREATING NRP2-ASSOCIATED DISEASES” (aTyr Pharma, Inc., priority 2018, published 2023).
Ends that are not written are not given here.

Columns and labels:
NRP2 = target: T1, NRP2 (Homo sapiens, UniProt O60462); test: SPR protein-protein interaction, human NRP2 over immobilized protein; assay type: binding; conditions: NRP2 flowed as analyte (50 nM or 20 nM); running buffer with 5 mM CaCl2
T1 construct: Fc (C); purchased R&D Systems 2215-N2
Protocol: Protein-Protein Interaction studies. […] SPR experiments were conducted on a Bio-Rad ProteOn XPR36 Protein Interaction Array instrument. Proteins were immobilized on different channels of ProteOn GLC sensor chips through amine coupling. Analyte proteins were flowed over the immobilized proteins. The sensor chip surface was regenerated between each analyte run to remove interacting proteins. Data was double referenced against an interspot (untreated chip surface) and a blank surface (activated and deactivated for amine coupling).
Studies were performed to confirm the binding specificity of Neuropilin 2 (NRP2) to Fc-HRS(2-60) using orthologous methods to those used in the large scale Retrogenix screening (Example 1). In a series of experiments, Fc-HRS(2-60) and related proteins were immobilized on SPR chips, and NRP2 and related proteins were flowed as analytes. Upon confirmation of the NRP2:Fc-HRS(2-60) interaction, the dependence on divalent cations was tested as NRP2 is known to have Ca^2+ binding sites. The effects of previously characterized NRP2 ligands on the NRP2: Fc-HRS(2-60) interaction was also tested to determine if these known ligands have competitive effects on the Fc-HRS(2-60) interaction.

[1] = test system: murine model of sclerodermatous chronic graft vs. host disease (scl cGvHD); test: Murine model of sclerodermatous chronic graft vs. host disease; assay type: in vivo, mouse; conditions: Fc-HRS(2-60) 0.4 mg/kg weekly IV, nintedanib daily oral, termination 8 weeks
Protocol: This study was designed to investigate the in vivo potential of test compounds in a murine model of sclerodermatous chronic graft vs. host disease (scl cGvHD). A H-2^d minor histocompatibility antigen-mismatched model was employed. The model was prepared by allogenic transplantation of bone marrow cells and splenocytes of male donor B10.D2 mice into 8 week old female Balb/c mice which had been subject to whole body irradiation with 700 cGy 6 hours prior to transplantation.
Treatment Regimen. Fifty-six (56) Balb/c mice, (Janvier, Le Genest St. Isle, France, female, 8 weeks) were used as recipients in this study while B10.D2 mice (Jackson Laboratory, Bar Harbor, Me., USA, male) were euthanized to provide donor cells for allogenic transplantation. The animals were assigned to study groups of 8 mice, and housed in specific pathogen-free conditions with sterile food and water. In brief, animals received weekly intravenous injections of the Vehicle of Fc-HRS(2-60) (20 mM Histidine/125 mM NaCl/10 mM Methionine/3% Sucrose/0.02% PS20, pH 6.9) beginning on Day 7 post transplantation (groups 2 and 3) or Fc-HRS(2-60) (0.4 mg/kg) beginning on Day 7 (group 4) or Day 21 (group 6) post-transplantation. […] Tissues were examined histologically using common staining techniques and tissue homogenates were analyzed for hydroxyproline content as an index of collagen content. […]

FCGR1A = target: T2, FCGR1A (Homo sapiens, UniProt P12314); test: Retrogenix cell microarray screen, FCGR1A; assay type: binding; conditions: sequential staining method; 20 μg/ml test protein; expressed in HEK293 cells
T2 construct: host or cells: HEK293
Protocol: (§1) To identify potential interacting partners of HRS, and related HRS polypeptides, the Retrogenix cell microarray screening technology (Retrogenix Ltd., High Peak Rd, United Kingdom) was used to evaluate binding of a HRS-Fc fusion protein construct ([Fc-HRS(2-60)] to a library of approximately 4500 membrane bound human proteins individually expressed in HEK293 cells.
(§2) In brief, HEK293 cells were plated onto glass cover slides which have been pre-treated by the application of discrete expression vectors to enable reverse transfection and expression of each of the 4500 membrane proteins, to create a cell microarray. Transfection efficiencies were assessed via ZsGreen1 expression and exceeded the minimum threshold for all of the library members screened.
(§3) Use of a smaller HRS fragment with a Fc tag provided for high sensitivity detection via the use of an AlexaFluor647 labeled anti-human IgG Fc antibody (AF647) as the detection reagent, and readily available controls to confirm specificity. The detection antibody was used at screening concentrations of 2, 5, and 20 μg/ml, as more fully described below. […]
(§4) Primary hits (duplicate spots) were identified by analyzing fluorescence intensity in the AlexaFluor 647 and ZsGreen1 emission channels using the ImageQuant system, following standard fluorescent methodology. […]

FCGR2A = target: T3, FCGR2A (Homo sapiens, UniProt P12318); test: Retrogenix cell microarray screen, FCGR2A; assay type: binding; conditions: sequential staining method; 20 μg/ml test protein; expressed in HEK293 cells
T3 construct: host or cells: HEK293
T3 sequence (P12318 34-317): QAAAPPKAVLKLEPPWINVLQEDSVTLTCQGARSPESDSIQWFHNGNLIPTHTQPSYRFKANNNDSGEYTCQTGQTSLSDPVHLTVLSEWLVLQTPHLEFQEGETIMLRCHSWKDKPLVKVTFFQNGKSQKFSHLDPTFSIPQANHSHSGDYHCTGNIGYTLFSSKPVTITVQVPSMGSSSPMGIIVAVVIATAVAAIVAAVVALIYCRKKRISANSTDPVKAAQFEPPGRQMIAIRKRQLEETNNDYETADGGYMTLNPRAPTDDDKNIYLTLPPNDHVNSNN
Protocol: as §1, §2, §3, §4

IGHG3 = target: T4, IGHG3 (Homo sapiens, UniProt P01860); test: Retrogenix cell microarray screen, IGHG3; assay type: binding; conditions: sequential staining method; 20 μg/ml test protein; expressed in HEK293 cells
T4 construct: host or cells: HEK293
Protocol: as §1, §2, §3, §4

MS4A1 = target: T5, MS4A1 (Homo sapiens, UniProt P11836); test: Retrogenix cell microarray screen, MS4A1; assay type: binding; conditions: 20 μg/ml test protein
T5 construct: host or cells: HEK293
T5 sequence (P11836 1-297): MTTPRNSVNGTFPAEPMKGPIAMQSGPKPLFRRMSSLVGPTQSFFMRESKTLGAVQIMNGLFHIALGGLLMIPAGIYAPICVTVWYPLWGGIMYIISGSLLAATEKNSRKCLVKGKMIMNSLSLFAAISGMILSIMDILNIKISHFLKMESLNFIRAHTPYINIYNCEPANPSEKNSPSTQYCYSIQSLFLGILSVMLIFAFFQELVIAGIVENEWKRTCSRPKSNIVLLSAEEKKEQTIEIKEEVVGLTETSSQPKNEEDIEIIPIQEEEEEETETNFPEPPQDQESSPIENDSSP
Protocol: as §1, §2, §3, §4

SLC13A3 = target: T6, SLC13A3 (Homo sapiens, UniProt Q8WWT9); test: Retrogenix cell microarray screen, SLC13A3; assay type: binding; conditions: 20 μg/ml test protein; for Sequential incubation confirmatory screening result, SLC13A3: sequential staining method, expressed in HEK293 cells
T6 construct: host or cells: HEK293
T6 sequence (Q8WWT9 1-602): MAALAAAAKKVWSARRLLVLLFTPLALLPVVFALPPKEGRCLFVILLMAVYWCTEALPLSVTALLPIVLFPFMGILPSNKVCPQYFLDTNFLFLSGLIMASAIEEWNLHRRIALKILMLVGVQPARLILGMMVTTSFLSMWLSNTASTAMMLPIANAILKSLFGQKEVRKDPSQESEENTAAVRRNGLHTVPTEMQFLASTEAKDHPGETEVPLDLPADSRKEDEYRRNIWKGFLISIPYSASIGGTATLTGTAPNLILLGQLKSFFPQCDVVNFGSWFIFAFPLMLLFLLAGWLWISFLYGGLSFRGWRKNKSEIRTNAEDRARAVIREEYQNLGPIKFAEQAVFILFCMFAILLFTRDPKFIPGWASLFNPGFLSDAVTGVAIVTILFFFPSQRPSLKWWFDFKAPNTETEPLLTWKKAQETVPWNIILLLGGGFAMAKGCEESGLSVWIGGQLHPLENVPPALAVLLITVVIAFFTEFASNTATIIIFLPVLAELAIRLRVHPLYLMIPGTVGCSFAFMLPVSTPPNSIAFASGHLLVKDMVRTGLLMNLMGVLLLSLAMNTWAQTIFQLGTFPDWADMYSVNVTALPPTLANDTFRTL
Protocol: as §1, §2
Use of a smaller HRS fragment with a Fc tag provided for high sensitivity detection via the use of an AlexaFluor647 labeled anti-human IgG Fc antibody (AF647) as the detection reagent, and readily available controls to confirm specificity. The detection antibody was used at screening concentrations of 2, 5, and 20 μg/ml, as more fully described below.
Test Protein was screened at a concentration of 20 μg/ml using two different screening formats; either a sequential staining method, or a pre-incubation staining method. Sequential staining involved, in brief, the sequential addition to the test cells, of the test protein and detection reagents, while the pre-incubation staining method involved the pre-incubation of the test protein with the detection reagents (2:1 molar ratio of test protein to detection antibody) to pre-form higher avidity complexes prior to the addition to the test cells.
as §4

CD86 = target: T7, CD86 (Homo sapiens, UniProt P42081); test: Retrogenix cell microarray screen, CD86; assay type: binding; conditions: 20 μg/ml test protein
T7 construct: host or cells: HEK293
T7 sequence (P42081 24-329): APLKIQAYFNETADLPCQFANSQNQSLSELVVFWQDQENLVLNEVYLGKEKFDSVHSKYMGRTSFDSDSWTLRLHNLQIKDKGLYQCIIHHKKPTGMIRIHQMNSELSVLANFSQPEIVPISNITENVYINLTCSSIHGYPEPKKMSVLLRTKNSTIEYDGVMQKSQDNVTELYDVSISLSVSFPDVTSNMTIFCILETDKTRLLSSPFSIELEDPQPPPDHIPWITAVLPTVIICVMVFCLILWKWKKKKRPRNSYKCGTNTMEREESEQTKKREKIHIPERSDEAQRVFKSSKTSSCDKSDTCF
Protocol: as §1, §2, §3, §4

[2] = pre-incubation staining method (2:1 test protein to detection antibody), HEK293 cells
[3] = sequential staining method, expressed in HEK293 cells

T1 sequence (O60462 21-931): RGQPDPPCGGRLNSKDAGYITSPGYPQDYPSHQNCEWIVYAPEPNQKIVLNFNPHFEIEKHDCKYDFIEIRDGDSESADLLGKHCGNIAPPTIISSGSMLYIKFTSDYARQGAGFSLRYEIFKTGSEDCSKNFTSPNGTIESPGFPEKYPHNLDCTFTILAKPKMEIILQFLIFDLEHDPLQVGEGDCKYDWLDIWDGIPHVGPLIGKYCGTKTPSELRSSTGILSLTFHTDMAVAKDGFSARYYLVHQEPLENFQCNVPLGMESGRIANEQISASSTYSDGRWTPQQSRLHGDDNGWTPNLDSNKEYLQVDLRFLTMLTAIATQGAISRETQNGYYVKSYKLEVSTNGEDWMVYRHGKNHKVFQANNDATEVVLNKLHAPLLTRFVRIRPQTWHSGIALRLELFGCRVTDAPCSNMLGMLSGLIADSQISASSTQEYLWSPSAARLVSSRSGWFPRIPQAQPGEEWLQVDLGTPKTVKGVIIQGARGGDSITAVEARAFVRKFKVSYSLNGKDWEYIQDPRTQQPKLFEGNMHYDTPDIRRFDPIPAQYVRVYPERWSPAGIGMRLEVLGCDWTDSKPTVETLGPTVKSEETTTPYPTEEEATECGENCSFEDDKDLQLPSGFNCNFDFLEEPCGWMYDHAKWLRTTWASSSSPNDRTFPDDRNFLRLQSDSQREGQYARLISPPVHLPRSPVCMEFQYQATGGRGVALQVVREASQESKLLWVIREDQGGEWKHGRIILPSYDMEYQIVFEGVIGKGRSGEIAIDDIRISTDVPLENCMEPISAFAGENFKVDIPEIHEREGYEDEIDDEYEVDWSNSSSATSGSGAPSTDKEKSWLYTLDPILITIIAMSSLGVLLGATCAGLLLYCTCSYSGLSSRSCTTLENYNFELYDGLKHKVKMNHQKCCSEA
T4 sequence (P01860 whole entry): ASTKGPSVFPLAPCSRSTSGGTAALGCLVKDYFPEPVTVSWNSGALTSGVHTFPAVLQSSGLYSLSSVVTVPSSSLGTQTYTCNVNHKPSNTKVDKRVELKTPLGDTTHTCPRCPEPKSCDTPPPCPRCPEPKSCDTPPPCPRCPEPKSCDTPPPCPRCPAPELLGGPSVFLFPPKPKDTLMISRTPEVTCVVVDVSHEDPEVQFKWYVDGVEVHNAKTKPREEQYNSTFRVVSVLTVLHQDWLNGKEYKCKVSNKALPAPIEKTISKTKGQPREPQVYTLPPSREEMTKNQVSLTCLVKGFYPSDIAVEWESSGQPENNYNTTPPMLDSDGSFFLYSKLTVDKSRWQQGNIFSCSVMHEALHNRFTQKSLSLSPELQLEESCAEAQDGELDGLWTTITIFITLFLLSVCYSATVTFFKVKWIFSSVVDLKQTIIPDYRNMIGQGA
T2 sequence (P12314 16-374): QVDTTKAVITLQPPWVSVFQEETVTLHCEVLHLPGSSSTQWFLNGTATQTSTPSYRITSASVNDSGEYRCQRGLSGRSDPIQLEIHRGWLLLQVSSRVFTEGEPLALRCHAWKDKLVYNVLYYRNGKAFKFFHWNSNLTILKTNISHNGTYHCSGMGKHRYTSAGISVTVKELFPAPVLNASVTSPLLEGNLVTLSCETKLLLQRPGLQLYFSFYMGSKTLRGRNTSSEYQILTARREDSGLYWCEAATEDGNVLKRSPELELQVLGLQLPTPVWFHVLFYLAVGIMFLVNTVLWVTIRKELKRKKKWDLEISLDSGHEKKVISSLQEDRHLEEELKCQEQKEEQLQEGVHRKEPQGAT

For “MARS Fc-WHEP: Fc domain fused to the WHEP domain of MARS (QIQALMDEVTKQGNIVRELKAQKADKNEVAAEVAKLLDLKKQLAVAEGKPPEAPKGK; not fully specified (N-terminus); also: fused to dimerising Fc domain (not included))”, the “binding of human NRP2 to immobilized protein (SPR)” value (“binding of human NRP2” for short) (NRP2) was “does not bind”.

For `COC(=O)c1ccc2c(c1)NC(=O)/C2=C(\Nc1ccc(N(C)C(=O)CN2CCN(C)CC2)cc1)c1ccccc1` [nintedanib], the “measures of fibrosis in skin and lung” value ([1]; intervention beginning 7 days post-transplantation) was “significantly ameliorated all measures of fibrosis” and the “fibrotic endpoints in skin and lung” value ([1]; intervention beginning 21 days post-transplantation) was “significantly improved most endpoints measured”.

With “GARS Fc-WHEP: Fc domain fused to the WHEP domain of GARS (VLAPLRLAVRQQGDLVRKLKEDKAPQVDVDKAVAELKARKRVLEAKELALQPKDDIV; not fully specified (N-terminus); also: fused to dimerising Fc domain (not included))” the “binding of human NRP2” value (NRP2) was “does not bind”.

For “WARS WHEP: WHEP domain of WARS with a V5/His tag (SLLELFNSIATQGELVRSLKAGNASKDEIDSAVKMLVSLKMSYKAAAGEDYKADCPP; also: V5/His tag (not included))”, the “binding of human NRP2” value (NRP2) was “does not bind”.

For RITUXIMAB, the “Sequential incubation confirmatory screening result, FCGR1A” value (FCGR1A) was “NON SPEC”, the “Sequential incubation confirmatory screening result, FCGR2A” value (FCGR2A) was “NON SPEC” and the “Sequential incubation confirmatory screening result, IGHG3” value (IGHG3) was “STRONG”. For the same molecule, the “Pre-incubation confirmatory screening, Binding scoring, MS4A1” value (MS4A1; [2]) was “STRONG”, the “Sequential incubation confirmatory screening result, MS4A1” value (MS4A1; [3]) was “STRONG” and the “Pre-incubation confirmatory screening, Binding scoring, SLC13A3” value (SLC13A3; [2]) was “INVERSE”. For the same molecule, the “Sequential incubation confirmatory screening result, SLC13A3” value (SLC13A3) was “INVERSE”.

CTLA4-FC was tested, and the “Sequential incubation confirmatory screening result, FCGR1A” value (FCGR1A) was “NON SPEC”, the “Sequential incubation confirmatory screening result, FCGR2A” value (FCGR2A) was “NON SPEC” and the “Pre-incubation confirmatory screening, Binding scoring, CD86” value (CD86; [2]) was “STRONG”. The “Sequential incubation confirmatory screening result, CD86” value (CD86; [3]) was “STRONG”, the “Sequential incubation confirmatory screening result, IGHG3” value (IGHG3) was “STRONG” and the “Sequential incubation confirmatory screening result, SLC13A3” value (SLC13A3) was “NON SPEC”.
